Source: publication PMC9358478 (The Journal of Biological Chemistry, 2022)

Target: T1, full-length recombinant human TG2 (human, UniProt P21980 1-687)
T1 sequence: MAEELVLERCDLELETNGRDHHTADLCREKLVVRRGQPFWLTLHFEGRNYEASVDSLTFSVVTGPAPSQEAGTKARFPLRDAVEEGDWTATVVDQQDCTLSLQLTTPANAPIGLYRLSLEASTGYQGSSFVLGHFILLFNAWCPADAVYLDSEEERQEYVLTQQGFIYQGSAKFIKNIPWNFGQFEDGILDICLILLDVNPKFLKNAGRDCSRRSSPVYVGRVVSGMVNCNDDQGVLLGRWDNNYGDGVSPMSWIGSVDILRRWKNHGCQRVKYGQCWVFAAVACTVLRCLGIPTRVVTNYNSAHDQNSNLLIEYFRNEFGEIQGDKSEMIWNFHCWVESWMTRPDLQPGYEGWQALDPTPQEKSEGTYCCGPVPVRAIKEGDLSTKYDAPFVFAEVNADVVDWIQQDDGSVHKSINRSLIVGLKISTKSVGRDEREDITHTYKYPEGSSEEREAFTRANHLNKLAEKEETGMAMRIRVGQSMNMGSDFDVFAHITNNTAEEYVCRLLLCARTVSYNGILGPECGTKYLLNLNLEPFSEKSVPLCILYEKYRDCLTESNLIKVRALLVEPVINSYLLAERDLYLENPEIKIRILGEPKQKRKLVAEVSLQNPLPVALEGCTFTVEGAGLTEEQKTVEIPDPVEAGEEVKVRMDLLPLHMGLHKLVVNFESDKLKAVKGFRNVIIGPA
Experiment: co-IP

B1: full-length recombinant human ILK (natural protein)
chain: MDDIFTQCREGNAVAVRLWLDNTENDLNQGDDHGFSPLHWACREGRSAVVEMLIMRGARINVMNRGDDTPLHLAASHGHRDIVQKLLQYKADINAVNEHGNVPLHYACFWGQDQVAEDLVANGALVSICNKYGEMPVDKAKAPLRELLRERAEKMGQNLNRIPYKDTFWKGTTRTRPRNGTLNKHSGIDFKQLNFLTKLNENHSGELWKGRWQGNDIVVKVLKVRDWSTRKSRDFNEECPRLRIFSHPNVLPVLGACQSPPAPHPTLITHWMPYGSLYNVLHEGTNFVVDQSQAVKFALDMARGMAFLHTLEPLIPRHALNSRSVMIDEDMTARISMADVKFSFQCPGRMYAPAWVAPEALQKKPEDTNRRSADMWSFAVLLWELVTREVPFADLSNMEIGMKVALEGLRPTIPPGISPHVCKLMKICMNEDPAKRPKFDMIVPILEKMQDK
B1: binds.
